Assay [1] deals with MjNhaP1 N160A mutant (NhaP1 Na+/H+ antiporter from Methanocaldococcus jannaschii) (Methanocaldococcus jannaschii) (UniProt Q60362). The experiment in a line: Western blotting; dimers observed by Western blotting; data not shown; no conditions told.
Assay [2] has as its target MjNhaP1 D161A mutant (NhaP1 Na+/H+ antiporter from Methanocaldococcus jannaschii) (Methanocaldococcus jannaschii) (UniProt Q60362). The assay is described as above.

As a reminder, the stoichiometry N is a count of units in the complex or per binding partner.

As for “MjNhaP1 N160A mutant (NhaP1 Na+/H+ antiporter from Methanocaldococcus jannaschii) (from UniProt Q60362 1-426) (natural protein)”, in assay [1], the stoichiometry N is 2.

On to “MjNhaP1 D161A mutant (NhaP1 Na+/H+ antiporter from Methanocaldococcus jannaschii) (from UniProt Q60362 1-426) (natural protein)”, for which the stoichiometry N in assay [2] was 2.

For the origin of these results see publication PMC4036328.
